Laboratory results: patent publication US20060287501A1 (Pieris, published 2006)

T1: recombinant Nogo-A fragment NI-Fr2 (rat, UniProt Q9JK11 233-941, labelled with digoxigenin (molar ratio 5:1) in the colony screening assay)
T1 construct: Truncated rat Nogo-A with C-terminal Strep-tag, made in the E. coli periplasm; also called MI-Fr2; wild-type NI-Fr2
T1 sequence: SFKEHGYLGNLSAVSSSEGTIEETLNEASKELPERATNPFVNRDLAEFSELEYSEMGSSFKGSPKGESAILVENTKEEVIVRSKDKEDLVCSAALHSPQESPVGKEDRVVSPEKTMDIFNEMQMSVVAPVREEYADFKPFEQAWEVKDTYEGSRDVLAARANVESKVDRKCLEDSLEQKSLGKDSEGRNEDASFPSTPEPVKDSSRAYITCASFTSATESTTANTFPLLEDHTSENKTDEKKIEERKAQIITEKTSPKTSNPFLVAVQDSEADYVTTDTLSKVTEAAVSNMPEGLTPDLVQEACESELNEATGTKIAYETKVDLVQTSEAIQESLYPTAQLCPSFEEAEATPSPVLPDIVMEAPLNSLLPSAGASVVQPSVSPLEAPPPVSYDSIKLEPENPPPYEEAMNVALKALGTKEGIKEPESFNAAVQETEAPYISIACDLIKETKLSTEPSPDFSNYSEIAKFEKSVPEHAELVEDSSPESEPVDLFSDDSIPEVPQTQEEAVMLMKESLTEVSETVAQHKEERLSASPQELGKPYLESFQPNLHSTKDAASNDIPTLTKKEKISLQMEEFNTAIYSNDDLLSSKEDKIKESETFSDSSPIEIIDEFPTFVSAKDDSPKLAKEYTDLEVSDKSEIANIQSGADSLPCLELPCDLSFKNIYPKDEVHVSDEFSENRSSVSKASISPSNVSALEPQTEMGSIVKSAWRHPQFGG

B1: I.1.6 Fab fragment (IN-1 mutant) (Fab, V domains shown)
VH: EVKLHESGPGLVRPGTSVKISCKASGYTFTNYWLGWVKQRPGHGLEWIGDIYPGGGYTNYNEKFKGKATLTADTSSSTAYMQLSSLTSEDSAVYFCARFYYGSSYWYFDVWGQGTTVTVSS
VL: DIELTQSPAIMAASVGETVTITCGASENIYGALNWYQRKQGKSPQLLIYGATNLADGMSSRFSGSGSGRQYSLKISSLHPDDVATYYCQNVLNLPCTFGAGTKLEIK
notes: Chimeric Fab, human IgG1/kappa constant domains
B2: I.1.11 Fab fragment (IN-1 mutant) (Fab, V domains shown)
VH: EVKLHESGPGLVRPGTSVKISCKASGYTFTNYWLGWVKQRPGHGLEWIGDIYPGGGYTNYNEKFKGKATLTADTSSSTAYMQLSSLTSEDSAVYFCARFYYGSSYWYFDVWGQGTTVTVSS
VL: DIELTQSPAIMAASVGETVTITCGASENIYGALNWYQRKQGKSPQLLIYGATNLADGMSSRFSGSGSGRQYSLKISSLHPDDVATYYCQNVLYTPCTFGAGTKLEIK
notes: as for B1
B3: I.2.4 Fab fragment (IN-1 mutant) (Fab, V domains shown)
VH: EVKLHESGPGLVRPGTSVKISCKASGYTFTNYWLGWVKQRPGHGLEWIGDIYPGGGYTNYNEKFKGKATLTADTSSSTAYMQLSSLTSEDSAVYFCARFYYGSSYWYFDVWGQGTTVTVSS
VL: DIELTQSPAIMAASVGETVTITCGASENIYGALNWYQRKQGKSPQLLIYGATNLADGMSSRFSGSGSGRQYSLKISSLHPDDVATYYCQNVLGTPFTFGAGTKLEIK
notes: as for B1
B4: I.4.4 Fab fragment (IN-1 mutant) (Fab, V domains shown)
VH: EVKLHESGPGLVRPGTSVKISCKASGYTFTNYWLGWVKQRPGHGLEWIGDIYPGGGYTNYNEKFKGKATLTADTSSSTAYMQLSSLTSEDSAVYFCARFYYGSSYWYFDVWGQGTTVTVSS
VL: DIELTQSPAIMAASVGETVTITCGASENIYGALNWYQRKQGKSPQLLIYGATNLADGMSSRFSGSGSGRQYSLKISSLHPDDVATYYCQNVLDRPLTFGAGTKLEIK
notes: as for B1
B5: I.2.5 Fab fragment (IN-1 mutant) (Fab, V domains shown)
VH: EVKLHESGPGLVRPGTSVKISCKASGYTFTNYWLGWVKQRPGHGLEWIGDIYPGGGYTNYNEKFKGKATLTADTSSSTAYMQLSSLTSEDSAVYFCARFYYGSSYWYFDVWGQGTTVTVSS
VL: DIELTQSPAIMAASVGETVTITCGASENIYGALNWYQRKQGKSPQLLIYGATNLADGMSSRFSGSGSGRQYSLKISSLHPDDVATYYCQNVLPCPVTFGAGTKLEIK
notes: as for B1
B6: I.2.6 Fab fragment with Cys L96 replaced by Met (Fab, V domains shown)
VH: EVKLHESGPGLVRPGTSVKISCKASGYTFTNYWLGWVKQRPGHGLEWIGDIYPGGGYTNYNEKFKGKATLTADTSSSTAYMQLSSLTSEDSAVYFCARFYYGSSYWYFDVWGQGTTVTVSS
VL: DIELTQSPAIMAASVGETVTITCGASENIYGALNWYQRKQGKSPQLLIYGATNLADGMSSRFSGSGSGRQYSLKISSLHPDDVATYYCQNVLRVPMTFGAGTKLEIK
notes: as for B1
B7: I.2.6 Fab fragment with Cys L96 replaced by Leu (Fab, V domains shown)
VH: EVKLHESGPGLVRPGTSVKISCKASGYTFTNYWLGWVKQRPGHGLEWIGDIYPGGGYTNYNEKFKGKATLTADTSSSTAYMQLSSLTSEDSAVYFCARFYYGSSYWYFDVWGQGTTVTVSS
VL: DIELTQSPAIMAASVGETVTITCGASENIYGALNWYQRKQGKSPQLLIYGATNLADGMSSRFSGSGSGRQYSLKISSLHPDDVATYYCQNVLRVPLTFGAGTKLEIK
notes: as for B1
B8: I.2.6 Fab fragment with Cys L96 replaced by Ala (Fab, V domains shown)
VH: EVKLHESGPGLVRPGTSVKISCKASGYTFTNYWLGWVKQRPGHGLEWIGDIYPGGGYTNYNEKFKGKATLTADTSSSTAYMQLSSLTSEDSAVYFCARFYYGSSYWYFDVWGQGTTVTVSS
VL: DIELTQSPAIMAASVGETVTITCGASENIYGALNWYQRKQGKSPQLLIYGATNLADGMSSRFSGSGSGRQYSLKISSLHPDDVATYYCQNVLRVPATFGAGTKLEIK
notes: as for B1
B9: I.2.6 Fab fragment with Cys L96 replaced by Ile (Fab, V domains shown)
VH: EVKLHESGPGLVRPGTSVKISCKASGYTFTNYWLGWVKQRPGHGLEWIGDIYPGGGYTNYNEKFKGKATLTADTSSSTAYMQLSSLTSEDSAVYFCARFYYGSSYWYFDVWGQGTTVTVSS
VL: DIELTQSPAIMAASVGETVTITCGASENIYGALNWYQRKQGKSPQLLIYGATNLADGMSSRFSGSGSGRQYSLKISSLHPDDVATYYCQNVLRVPITFGAGTKLEIK
notes: as for B1

The binders below were run against T1, recombinant Nogo-A fragment NI-Fr2 (assay: filter-sandwich colony screening assay; Fab-ABD (pASK106) captured on HSA membrane, digoxigenin-labelled NI-Fr2).
Method: The mutagenized gene fragment was recloned on the expression vector pASK106-IN1 (encoding a Fab fragment fused with an albumin-binding domain to the C-terminus of its light chain; König and Skerra, supra). E. coli JM83 was transformed with the ligation mixture and transformed cells harboring the pASK106 vector were plated on a hydrophilic membrane (GVWP, 0.22 μm; Millipore, Bedford, Mass.), placed on a petri dish with LB/Amp agar, such that approximately 500 colonies were obtained, and incubated at 37° C. for 8 to 9 h. In the meantime a hydrophobic membrane (Immobilon-P, 0.45 μm; Millipore) was coated with 10 mg/ml human serum albumin (HSA; Sigma, Deisenhofen, Germany) in PBS for four hours and blocked with 3% (w/v) BSA (Roth, Karlsruhe, Germany), 0.5% (v/v) Tween 20 in PBS. The membrane was washed twice with PBS, soaked in LB/Amp containing […], and placed on an LB/Amp agar plate supplemented with […]. The first membrane, carrying tiny colonies of the transformed cells, was then placed onto the second (hydrophobic) membrane. The filter sandwich was incubated for 16 h at 22° C. During this period the mutated IN-1 Fab fragments became secreted—and partially released from the colonies by leakage from the bacterial periplasm—and finally immobilized on the lower membrane via complex formation between HSA and ABD.
The first membrane with the still viable colonies was transferred to a fresh LB/Amp agar plate and stored at 4° C. The second membrane was washed three times in PBS containing 0.1% (v/v) Tween 20 (PBS/T) and the immobilized Fab fragments, each in a spot 30 corresponding to the position of the original colony, were probed for antigen binding. To this end recombinant Nogo-A fragment NI-FR2 was labeled at a molar ratio of 5:1 with digoxigenin-3-O-methylcarbonyl-e-aminocaproic acid N-hydroxy-succinimide ester (Roche Diagnostics, Mannheim, Germany) and applied to the membrane for one hour at a concentration of 30 or 50 μg/ml in PBS/T. After washing three times with PBS/T the membrane was incubated for one hour with 0.75 u/ml anti-digoxigenin Fab fragment conjugated with alkaline phosphatase (Roche Diagnostics) in 10 ml PBS/T. The membrane was finally washed twice with PBS/T and twice with PBS and the signals were developed using standard chromogenic substrates as described (Schlehuber et al., supra).
B1: binds. B2: binds. B3: binds. B4: binds. B5: binds.

The binders below were run against T1, recombinant Nogo-A fragment NI-Fr2 (assay: ELISA; NI-Fr2 coated).
Method: ELISA was carried out in a 96 well microtitre plate (Becton Dickinson, Heidelberg, Germany) at ambient temperature with incubation steps of 1 h unless otherwise stated. Three washing steps with PBS/T were used after each incubation, and residual liquid was removed thoroughly. The wells were coated for 4 h with 50 μl of a solution of MI-Fr2 at concentrations between 180 and 200 μg/ml in PBS buffer and then blocked with 200 μl 3% (w/v) BSA, 0.5% (v/v) Tween 20 in PBS. After washing, 50 μl of the purified recombinant Fab fragment was applied at a dilution series in PBS/T. The wells were then incubated with 50 μl anti-human Cκ antibody conjugated with alkaline phosphatase (Sigma), diluted 1:1000 in PBS/T. Signals were finally developed in the presence of p-nitrophenyl phosphate (Voss and Skerra, (1997) Protein Eng., 10, 975-982). Enzymatic activity was measured at 25° C. as the change in absorbance at 405 nm per min with a SpectraMAX 250 instrument (Molecular Devices, Sunnyvale, Calif.). The data were corrected for background values determined in wells that were merely coated with BSA and fitted by non-linear least squares regression as described by Voss and Skerra, supra
Unfortunately, the I.2.6 mutant of the IN-1 Fab fragment was produced as a soluble protein in E. coli at a much lower level, with a relative yield of 5% after purification (0.04 mg L⁻¹ OD⁻¹ vs. 0.8 mg L⁻¹ OD⁻¹ for the wild-type IN-1 Fab fragment). […] Following earlier substitution experiments concerning position L96 (cf. above) attempts were made to replace the Cys residue in the I.2.6 mutant by small apolar side chains such as those of Ala, Val, Met, Leu, and Ile. The substitutions were introduced by site-directed mutagenesis and all corresponding recombinant Fab fragments were produced and purified as before, resulting in yields that were similar again to the wild type IN-1 Fab fragment.
B6: no binding. B7: no binding. B8: no binding. B9: no binding.
